Measured values from the supplement of paper PMC7877785.
± gives the uncertainty stated by the source.

Test: self-splicing fitness, log relative to wild type (ln ratio); higher = more splicing; Tetrahymena group I intron in knt gene, E. coli kanamycin selection, DiMSum; sequences stand for … in CUCUCU…GGAGGGAAAAGUUAUCAGGCAUGCACCUGGUAGCUAGUCUUUAAACCAAUAGAUUGCAUCGGUUUAAAAGGCAAGACCGUCAAAUUGCGGGAAAGGGGUCAACAGCCGUUCAGUACCAAGUCUCAGGGGAAACUUUGAGAUGGCCUUGCAAAGGGUAUGGUAAUAAGCUGACGGACAUGGUCCUAACCACGCAGCCAAGUCCUAAGUCAACAGAUCUUCUGUUGAUAUGGAUGCAGUUCACAGACUAAAUGUCGGUCGGGGAAGAUGUAUUCUUCUCAUAAGAUAUAGUCGGACCUCUCCUUAAUGGGAGCUAGCGGAUGAAGUGAUGCAACACUGGAGCCGCUGGGAACUAAUUUGUAUGCGAAAGUAUAUUGAUUAGUUUUGGAGUACUCGUGGUCG
How it was run: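 Six replicate transformations of E. coli BL21(DE3) with a pET-22b(+) library were grown overnight at 37°C or 30°C. The library randomised all eight P1ex-region intron nucleotides, the intron lying in the knt kanamycin-resistance gene, and plates were LB agar with or without 25 μg/mL kanamycin plus 100 μg/mL carbenicillin, 50 μM IPTG and 0.2% rhamnose. Pooled colonies were amplicon-sequenced on an Illumina HiSeq 2500, and fitness is the DiMSum error-weighted combination of wild-type-normalised replicate fold changes, kanamycin versus none.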

Sequence	self-splicing fitness (ln) (30 °C)	self-splicing fitness (ln) (37 °C)
AAAAAGCAAUAUUACGAAGA	-1.96 ± 0.14	-1.56 ± 0.15
AAAAAGCAAUAUUACGAAGG	-3.57 ± 0.23	-1.89 ± 0.23
AAAAAGCAAUAUUACGAAUC	-2.31 ± 0.21	-2.21 ± 0.23
AAAAAGCAAUAUUACGACAC	-0.799 ± 0.094	-0.575 ± 0.13
AAAAAGCAAUAUUACGACCA	-0.0993 ± 0.079	-0.734 ± 0.09
AAAAAGCAAUAUUACGAGAG	-2.88 ± 0.11	-1.95 ± 0.1
AAAAAGCAAUAUUACGAGCU	-0.615 ± 0.092	-0.172 ± 0.13
AAAAAGCAAUAUUACGAUCU	0.127 ± 0.055	0.246 ± 0.075
AAAAAGCAAUAUUACGCAAG	-1.78 ± 0.097	-0.583 ± 0.1
AAAAAGCAAUAUUACGCAAU	-0.871 ± 0.076	-1.08 ± 0.13
AAAAAGCAAUAUUACGCCGA	-1.19 ± 0.088	-1.01 ± 0.099
AAAAAGCAAUAUUACGCGAC	-2.77 ± 0.18	-1.23 ± 0.12
AAAAAGCAAUAUUACGCGCC	-0.44 ± 0.095	-0.59 ± 0.13
AAAAAGCAAUAUUACGCUAC	-3.43 ± 0.18	-3.23 ± 0.24
AAAAAGCAAUAUUACGGAUU	-0.657 ± 0.068	-0.635 ± 0.096
AAAAAGCAAUAUUACGGCCC	-0.786 ± 0.22	0.00498 ± 0.23
AAAAAGCAAUAUUACGGCUC	-0.28 ± 0.076	0.157 ± 0.098
AAAAAGCAAUAUUACGGCUU	-0.00557 ± 0.049	0.259 ± 0.066
AAAAAGCAAUAUUACGGGAA	-2.09 ± 0.13	-1.82 ± 0.13
AAAAAGCAAUAUUACGGGAU	-1.62 ± 0.075	-1.23 ± 0.086
AAAAAGCAAUAUUACGGUGC	-3.45 ± 0.099	-2.25 ± 0.081
AAAAAGCAAUAUUACGGUGU	-2.13 ± 0.094	-1.39 ± 0.11
AAAAAGCAAUAUUACGGUUA	0.0411 ± 0.067	-0.012 ± 0.079
AAAAAGCAAUAUUACGUCAC	-4.29 ± 0.26	-1.27 ± 0.16
AAAAAGCAAUAUUACGUCUG	-0.785 ± 0.058	-0.319 ± 0.072
AAAAAGCAAUAUUACGUGCC	-0.945 ± 0.11	-1.17 ± 0.12

Sequence	self-splicing fitness (ln) (30 °C)	self-splicing fitness (ln) (37 °C)
AAAAAGCAAUAUUACGUUCA	-0.237 ± 0.075	0.0228 ± 0.089
AAAAAGCAAUAUUACGUUGC	-3.56 ± 0.13	-2.44 ± 0.14
AAACAGCAAUAUUACGAAUG	-2.81 ± 0.13	-1.91 ± 0.15
AAACAGCAAUAUUACGACAC	-1.95 ± 0.15	-0.33 ± 0.15
AAACAGCAAUAUUACGACUA	-0.953 ± 0.074	0.0444 ± 0.077
AAACAGCAAUAUUACGAGAU	-3.64 ± 0.2	-2 ± 0.15
AAACAGCAAUAUUACGAUCG	-2.18 ± 0.11	-0.0291 ± 0.11
AAACAGCAAUAUUACGAUGU	-1.36 ± 0.088	-0.715 ± 0.091
AAACAGCAAUAUUACGCAUA	-2 ± 0.096	-0.419 ± 0.073
AAACAGCAAUAUUACGCCAC		-1.77 ± 0.31
AAACAGCAAUAUUACGCGUA	-1.64 ± 0.093	-0.734 ± 0.083
AAACAGCAAUAUUACGGACG	-2.25 ± 0.087	-0.676 ± 0.097
AAACAGCAAUAUUACGGCGC	-1.43 ± 0.11	-0.594 ± 0.16
AAACAGCAAUAUUACGGGUC	-3.47 ± 0.16	-3.08 ± 0.22
AAACAGCAAUAUUACGGUGU	-2.42 ± 0.06	-1.4 ± 0.071
AAACAGCAAUAUUACGUCCG	-1.89 ± 0.082	-0.645 ± 0.1
AAACAGCAAUAUUACGUCUG	-2.28 ± 0.084	-1.17 ± 0.095
AAACAGCAAUAUUACGUUAG	-3.45 ± 0.14	-1.72 ± 0.12
AAACAGCAAUAUUACGUUCA	-0.713 ± 0.045	-0.557 ± 0.063
AAAGAGCAAUAUUACGAAAA		-0.77 ± 0.4
AAAGAGCAAUAUUACGAAUU	-1.32 ± 0.22	-2.28 ± 0.31
AAAGAGCAAUAUUACGAUAU	-3.17 ± 0.23	-1.97 ± 0.16
AAAGAGCAAUAUUACGCAAA	-3.16 ± 0.43	-2.75 ± 0.34
AAAGAGCAAUAUUACGCAUA	-2.55 ± 0.23	-1.42 ± 0.22
AAAGAGCAAUAUUACGCCCU	-2.57 ± 0.21	-0.718 ± 0.17
AAAGAGCAAUAUUACGCUCU		-2.45 ± 0.49

Sequence	self-splicing fitness (ln) (30 °C)	self-splicing fitness (ln) (37 °C)
AAAGAGCAAUAUUACGCUUC	-2.33 ± 0.29	-3.01 ± 0.43
AAAGAGCAAUAUUACGGCGC	-2.27 ± 0.2	-0.545 ± 0.21
AAAGAGCAAUAUUACGGCGG	-3.05 ± 0.19	-2.21 ± 0.24
AAAGAGCAAUAUUACGGGCU	-3.06 ± 0.17	-3.58 ± 0.34
AAAGAGCAAUAUUACGGGGC	-4.4 ± 0.42	-2.79 ± 0.36
AAAGAGCAAUAUUACGUAUC		-1.57 ± 0.27
AAAGAGCAAUAUUACGUCCG	-3.14 ± 0.21	-1.86 ± 0.35
AAAGAGCAAUAUUACGUCCU	-1.93 ± 0.13	-0.831 ± 0.12
AAAGAGCAAUAUUACGUGUG	-3.84 ± 0.18	-2.57 ± 0.19
AAAGAGCAAUAUUACGUGUU	-4.56 ± 0.36	-2.66 ± 0.24
AAAGAGCAAUAUUACGUUGG	-3.59 ± 0.22	-2.4 ± 0.25
AAAUAGCAAUAUUACGACCC	-0.239 ± 0.16	-0.544 ± 0.23
AAAUAGCAAUAUUACGAUCA	-0.673 ± 0.095	0.0414 ± 0.089
AAAUAGCAAUAUUACGCAAA	-2.3 ± 0.24	-1.66 ± 0.21
AAAUAGCAAUAUUACGCAUA	-1.7 ± 0.11	-0.726 ± 0.11
AAAUAGCAAUAUUACGCCCG	-0.812 ± 0.19	0.00909 ± 0.26
AAAUAGCAAUAUUACGCCUG	-0.3 ± 0.08	-1.03 ± 0.1
AAAUAGCAAUAUUACGGAGC	-3.73 ± 0.3	-2.26 ± 0.17
AAAUAGCAAUAUUACGGCCG	-0.799 ± 0.23	0.0219 ± 0.35
AAAUAGCAAUAUUACGGGAA	-3.24 ± 0.28	-1.34 ± 0.19
AAAUAGCAAUAUUACGGGAG	-2.29 ± 0.14	-1.84 ± 0.19
AAAUAGCAAUAUUACGGGUA	-2.15 ± 0.12	-1.41 ± 0.1
AAAUAGCAAUAUUACGGUGC	-4.05 ± 0.43	-1.81 ± 0.31
AAAUAGCAAUAUUACGUACU	0.159 ± 0.063	0.295 ± 0.091
